Numbering of substitutions follows the chain as printed.
Assays:
[1] = target: H3 from HeLa nuclear extract (UniProt P68431 2-136); assay: GSH-Sepharose pull-down from HeLa nuclear extract, Western blot
[2] = target: T1, p53 mono-methylated at lysine 382 by SET8 (UniProt P04637 1-393, monomethyl-lysine at K382); assay: Far Western on in vitro methylation reactions
T1 construct: also called p53K382me1; monomethylated p53

[3] = target: recombinant H3 dimethylated at lysine 9 by G9a SET domain (UniProt P68431 2-136); assay: Far Western on in vitro methylation reactions
[4] = target: T2, RelA mono-methylated at lysine 310 by SETD6 (293T cells) (UniProt Q04206 1-551, monomethyl-lysine at K310); assay: GSH-Sepharose pull-down from 293T nuclear extract, Western blot
T2 construct: also called RelAK310me1; methylated RelA

[5] = target: T3, 3× Flag-SIRT1 methylated by G9a at lysine 622 (293T cells) (UniProt Q96EB6 1-747, methyl-lysine at K622 (state not stated)); assay: GSH-Sepharose pull-down from 293T nuclear extract, anti-Flag Western blot
T3 construct: also called methylated SIRT1; not shown: 3× Flag tag of p3×FLAG-CMV-7
T3 sequence (looked up): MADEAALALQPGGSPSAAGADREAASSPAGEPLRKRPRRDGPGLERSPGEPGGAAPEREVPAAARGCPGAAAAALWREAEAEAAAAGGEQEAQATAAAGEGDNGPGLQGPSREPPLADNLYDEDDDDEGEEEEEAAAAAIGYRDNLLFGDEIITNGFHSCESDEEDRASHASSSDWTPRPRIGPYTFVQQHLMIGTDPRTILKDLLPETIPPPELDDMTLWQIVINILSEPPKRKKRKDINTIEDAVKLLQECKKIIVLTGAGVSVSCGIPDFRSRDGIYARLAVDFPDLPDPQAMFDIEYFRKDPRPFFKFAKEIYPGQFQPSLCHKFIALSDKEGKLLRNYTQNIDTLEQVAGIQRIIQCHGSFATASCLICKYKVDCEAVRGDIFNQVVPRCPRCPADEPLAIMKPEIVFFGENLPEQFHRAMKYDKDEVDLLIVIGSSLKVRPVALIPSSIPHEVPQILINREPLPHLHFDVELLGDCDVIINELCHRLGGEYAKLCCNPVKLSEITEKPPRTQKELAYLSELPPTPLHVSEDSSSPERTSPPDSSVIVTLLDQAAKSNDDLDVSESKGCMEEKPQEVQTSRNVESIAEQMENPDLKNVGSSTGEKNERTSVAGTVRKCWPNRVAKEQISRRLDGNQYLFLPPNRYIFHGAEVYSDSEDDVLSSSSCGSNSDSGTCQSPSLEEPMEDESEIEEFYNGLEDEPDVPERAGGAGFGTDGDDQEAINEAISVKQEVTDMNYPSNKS

[6] = target: T4, biotinylated mono-methylated H4K20 peptide (H4 amino acids 1-23) (UniProt P62805 2-24, monomethyl-lysine at K20; biotinylated); assay: peptide pull-down, Western blot
T4 construct: range 1-23; also called H4K20me1

[7] = target: T5, biotinylated di-methylated H4K20 peptide (H4 amino acids 1-23) (UniProt P62805 2-24, dimethyl-lysine at K20; biotinylated); assay: peptide pull-down, Western blot
T5 construct: range 1-23; also called H4K20me2

[8] = target: T1, p53 mono-methylated at lysine 382 by …; assay: Far Western, α-Flag detection (FIG. 9C)
[9] = target: T4, biotinylated mono-methylated H4K20 …; assay: peptide pull-down, α-Flag Western blot
[10] = target: T5, biotinylated di-methylated H4K20 …; assay: peptide pull-down, α-Flag Western blot
[11] = target: T6, recombinant p53 carrying K382R substitution (UniProt P04637 1-393); assay: Far Western on in vitro methylation reactions
T6 construct: also called p53K382R

[12] = target: T7, RelA carrying K310R substitution (UniProt Q04206 1-551); assay: GSH-Sepharose pull-down from 293T nuclear extract, Western blot
T7 construct: also called RelAK310R

3× Flag-SIRT1K622R = target: T8, 3× Flag-SIRT1K622R (UniProt Q96EB6 1-747); assay: GSH-Sepharose pull-down from 293T nuclear extract, anti-Flag Western blot
T8 construct: not shown: 3× Flag tag of p3×FLAG-CMV-7
T8 sequence (looked up): T3 sequence (looked up) with K622R

B1: GST-tagged 3×MBTD355N (methyllysine-binding mutant) (designed binder)
chain: EEWSSSQPATGEKKECWSWESYLEEQKAITAPVSLFQDSQAVTHNKNGFKLGMKLEGIDPQHPSMYFILTVAEVCGYRLRLHFDGYSECHDFWVNANSPDIHPAGWFEKTGHKLQPPKGYKEEEFSWSQYLRSTRAQAAPKHLFVSQSHSPPPLGFQVGMKLEAVNRMNPSLVCVASVTDVVDSRFLVHFDNWDDTYDYWCDPSSPYIHPVGWCQKQGKPLTPPQDYPDPDNFCWEKYLEETGASAVPTWAFKVRPPHSFLVNMKLEAVDRRNPALIRVASVEDVEDHRIKIHFDGWSHGYDFWIDADHPDIHPAGWCSKTGHPLQPPLGPREPSSASPGG
notes: Negative control; also called GST-3×MBTD355N; point-mutant; not shown: GST tag and PreScission linker of the pGEX6P1 vector at the N end
[1]
  binding result: no binding
[2]
  binding result: no binding
[3]
  binding result: no binding
[4]
  binding result: no binding
[5]
  binding result: no binding
[6]
  binding result: no binding (tested: 1 µg protein and 1 µg peptide)
[7]
  binding result: no binding (tested: 1 µg protein and 1 µg peptide)

B2: 3× Flag-3×MBTD355N (designed binder)
chain: B1 chain
notes: also called N-terminally Flag-tagged 3×MBTD355N; not shown: made by PreScission cleavage of the GST version
[8]
  binding result: no binding
[9]
  binding result: no binding
[10]
  binding result: no binding

B3: 3×MBTD355N-Flag (C-terminally Flag-tagged 3×MBTD355N) (designed binder, not shown: small tags and cut ends)
chain: B1 chain
[9]
  binding result: no binding
[10]
  binding result: no binding

B4: GST-tagged 3×MBT (three MBT repeats of L3MBTL1, amino acids 190-530, expressed as a GST fusion) (designed binder, not shown: a dimerising Fc or GST)
chain: B1 chain with N166D
notes: Used in solution (peptide pull-down, Far Western, peptide array) and coupled to GSH-Sepharose (protein pull-down); also called GST-3×MBT; 3xMBT
[11]
  binding result: no binding
[12]
  binding result: no binding
3× Flag-SIRT1K622R
  binding result: no binding

B5: GST-3× Flag-3×MBTD355N (designed binder, not shown: a dimerising Fc or GST; small tags and cut ends)
chain: B1 chain
[8]
  binding result: no binding
